Holding throughout (experiment): enzyme inhibition assay (chromogenic substrate, fit to Morrison's tight binding equation); MMP-2ACT (0.6 nM), MMP-9CAT (3 nM) or MMP-14CAT (1 nM) incubated with 0-25 nM N-TIMP2 variant for 1 h at 37 C in 50 mM HEPES, 10 mM CaCl2, 0.05% Brij-35, 1 mM DTNB, pH 7.5; then 100 uM chromogenic substrate, absorbance at 412 nm; three independent experiments
Common to all, as to details: both partners purified

The target of assay [1] is T1, human MMP-9 catalytic domain (MMP-9CAT) (human, UniProt P14780 107-215; P14780 391-443).
T1 construct: Matrix metalloproteinase 9 (MMP-9), human, catalytic domain, residues 107-215 (first stretch; residues 216-390 left out); Matrix metalloproteinase 9 (MMP-9), human, catalytic domain, residues 391-443 (second stretch)
T1 chain (looked up): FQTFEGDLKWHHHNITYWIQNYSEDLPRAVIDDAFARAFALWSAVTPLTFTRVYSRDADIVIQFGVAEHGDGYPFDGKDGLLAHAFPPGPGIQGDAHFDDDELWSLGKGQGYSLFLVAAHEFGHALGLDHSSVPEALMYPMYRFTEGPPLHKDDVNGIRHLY

The target of assay [2] is T2, human MMP-14 catalytic domain (MMP-14CAT) (human, UniProt P50281 112-292).
T2 construct: Matrix metalloproteinase 14 (MMP-14), human, catalytic domain, residues 112-292

For assay [3], the target named is T3, activated MMP-2 (MMP-2ACT) (human, UniProt P08253 110-660).
T3 sequence (looked up): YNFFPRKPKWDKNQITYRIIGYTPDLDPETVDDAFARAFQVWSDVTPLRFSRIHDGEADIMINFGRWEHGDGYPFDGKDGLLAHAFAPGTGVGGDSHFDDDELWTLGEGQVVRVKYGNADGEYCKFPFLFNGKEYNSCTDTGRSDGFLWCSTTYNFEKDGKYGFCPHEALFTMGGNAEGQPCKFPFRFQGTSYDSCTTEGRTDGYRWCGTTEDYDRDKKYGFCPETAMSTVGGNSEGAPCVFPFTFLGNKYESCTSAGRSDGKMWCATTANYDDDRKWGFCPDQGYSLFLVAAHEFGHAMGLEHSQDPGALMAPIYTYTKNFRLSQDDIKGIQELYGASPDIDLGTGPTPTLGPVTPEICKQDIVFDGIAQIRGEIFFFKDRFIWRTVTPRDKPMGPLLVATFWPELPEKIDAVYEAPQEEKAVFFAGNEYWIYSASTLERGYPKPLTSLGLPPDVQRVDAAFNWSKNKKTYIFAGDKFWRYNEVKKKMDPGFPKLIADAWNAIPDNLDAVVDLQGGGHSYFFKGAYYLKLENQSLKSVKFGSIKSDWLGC

From publication PMC9882641, “Utilizing genetic code expansion to modify N-TIMP2 specificity towards MMP-2, MMP-9, and MMP-14” (Research Square, 2023) come the findings set out here.

B1: N-TIMP2 (N-terminal domain of TIMP2) (domain or fragment, human, UniProt P16035 27-153, looked up)
chain: CSCSPVHPQQAFCNADVVIRAKAVSEKEVDSGNDIYGNPIKRIQYEIKQIKMFKGPEKDIEFIYTAPSSAVCGVSLDVGGKKEYLIAGKAEGDGKMHITLCDFIVPWDTLSTTQKKSLNHRYQMGCE
notes: numbers count on: the mature protein (Cys1 is the N-terminus); Cloned in the vector pMECS; also called wild-type N-TIMP2; parental N-TIMP2; source: E. coli WK6, periplasmic extract, purified (Ni-NTA)
In the case of B1, the Ki in assay [1] was determined as 0.322 nM; in assay [2] it was 0.711 nM; in assay [3], 0.233 nM.
